Residue numbers refer to the chain shown, from its start.
What was measured:
tvMyb1(35-141) = molecular target: T1, tvMyb1(35-141) (Trichomonas vaginalis, UniProt Q58HP2 35-141); assay: SPR
T1 sequence: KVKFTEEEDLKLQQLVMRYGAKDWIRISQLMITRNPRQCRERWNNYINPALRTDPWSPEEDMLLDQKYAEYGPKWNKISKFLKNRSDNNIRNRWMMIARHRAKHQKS

tvMyb1(35-141) T67A = molecular target: T2, tvMyb1(35-141) T67A (Trichomonas vaginalis, UniProt Q58HP2 35-141, T67A); assay: SPR
T2 sequence: T1 sequence with T33A

B1: MRE-1/MRE-2r 16-bp duplex, 5'-biotin (dsDNA)
DNA 1: AAGATAACGATATTTA
DNA 2: TAAATATCGTTATCTT
B1 was tested, and the Kd (tvMyb1(35-141)) was 1.24 nM and the binding result (tvMyb1(35-141) T67A) was “binds”.
